Measurements published in US20190338048A1 (published 2019).
Residue numbers refer to the chain shown, from its start. Numbers in names are those of the source. Like-named read-outs stand apart in the source and are kept apart here.

How the values were obtained:
[1] = molecular target: T1, His-tagged recombinant human CD-19 (human, UniProt P15391 20-291, limits assumed); assay: SPR
T1 sequence (looked up): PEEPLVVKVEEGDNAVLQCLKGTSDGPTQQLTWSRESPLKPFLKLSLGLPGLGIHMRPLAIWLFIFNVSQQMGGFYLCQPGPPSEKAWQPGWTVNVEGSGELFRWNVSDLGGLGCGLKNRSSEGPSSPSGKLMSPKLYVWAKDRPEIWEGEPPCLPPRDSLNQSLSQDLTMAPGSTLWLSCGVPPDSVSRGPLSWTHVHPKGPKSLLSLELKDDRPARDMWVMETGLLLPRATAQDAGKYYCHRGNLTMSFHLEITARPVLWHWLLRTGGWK

[2] = molecular target: T2, Recombinant human IL-17A (human, UniProt Q16552 20-155, limits assumed); assay: SPR
T2 sequence (Q16552 20-155 limits assumed): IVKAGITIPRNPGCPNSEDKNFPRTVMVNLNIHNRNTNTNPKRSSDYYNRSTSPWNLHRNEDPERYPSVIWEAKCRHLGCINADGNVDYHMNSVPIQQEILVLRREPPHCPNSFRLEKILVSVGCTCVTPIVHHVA

[3] = molecular target: T2, Recombinant human IL-17A; assay: SPR; remark: listed apart in the source
[4] = molecular target: T1, His-tagged recombinant human CD-19; assay: SPR; remark: listed apart in the source
[5] = molecular target: T3, His-tagged recombinant human CD-19 (human, UniProt P15391 20-291, limits assumed); assay: SPR; remark: listed apart in the source
T3 sequence (looked up): T1 sequence (looked up)

[6] = molecular target: T3, His-tagged recombinant human CD-19; assay: SPR; remark: listed apart in the source
[7] = molecular target: T4, Recombinant human IL-17A (human, UniProt Q16552 20-155, limits assumed); assay: SPR; remark: listed apart in the source
T4 sequence (Q16552 20-155 limits assumed): as above

[8] = molecular target: T4, Recombinant human IL-17A; assay: SPR; remark: listed apart in the source
[9] = molecular target: His-tagged Influenza B Hemagglutinin (B/Brisbane/60/2008) (Influenza B (B/Brisbane/60/2008))
[10] = molecular target: Pertuzumab heavy chain Fab construct (H2) L45P (VH L45P); assay: LCCA, SPR tag read-out
[11] = molecular target: CAT-2200 heavy chain Fab construct (H1) L45F (VH L45F); assay: LCCA, SPR tag read-out
[12] = molecular target: CAT-2200 heavy chain Fab construct (H1), wild type; assay: LCCA, SPR tag read-out
[13] = molecular target: Pertuzumab heavy chain Fab construct (H2) L45A (VH L45A); assay: LCCA, SPR tag read-out
[14] = molecular target: CAT-2200 heavy chain Fab construct (H1) Q39E (VH Q39E); assay: LCCA, SPR tag read-out
[15] = molecular target: Pertuzumab heavy chain Fab construct (H2) Q39R (VH Q39R); assay: LCCA, SPR tag read-out

B1: Design 2979 bispecific antibody, System B (CAT-2200 H1/L1 & SGN-CD19a H2/L2) (bispecific antibody)
chain 1: not shown
chain 2: NFMLTQPHSVSESPGKTVTISCTRSSGSLANYYVQWYQQRPGSSPTIVIFANNQRPSGVPDRFSGSIDSSSNSASLTISGLKTEDEADYYCQTYDPYSVVFGGGTKLTVLGQPKAAPSVTLFPPSSEELQANKATLVCLISDFYPGAVTVAWKADSSPVKAGVETTTPSKQSNNKYAAESELSLTPEQWKSHRSYSCQVTHEGSTVEKTVAPTECS
chain 3: not shown
chain 4: EIVLTQSPATLSLSPGERATLSCSASSSVSYMHWYQQKPGQAPRLLIYDTSKLASGIPARFSGSGSGTDFTLTISSLEPEDFAVYYCFQGSVYPFTFGQGTKLEIKRTVAAPSVFIFPPSDEQLKSGTARVGCLLNNFYPREAKVQWKVDNALQSGNSQESVTEQDSKDSTYSLRSTLTLSKADYEKHKVYACEVTHQGLSSPVTKSFNRGEC
Kd [1]: 149 nM | Difference in H1L1 log(KD) from wild type [2]: -0.14 | Kd [3]: 0.39 nM | Difference in H2L2 log(KD) from wild type [4]: 0.18

B2: Design 2994 bispecific antibody, System B (CAT-2200 H1/L1 & SGN-CD19a H2/L2) (bispecific antibody)
chain 1: not shown
chain 2: B1 chain 2 with E128Q, T135K, E179S, E181Y
chain 3: not shown
chain 4: B1 chain 4 with Q123E, R130S, G132D, R175S
Kd [5]: 49.7 nM | Difference in H2L2 log(KD) from wild type [6]: 0.16 log(KD) | Difference in H1L1 log(KD) from wild type [7]: 0.12 log(KD) | Kd [8]: 0.28 nM

B3: Design 3931 bispecific antibody, System B (CAT-2200 H1/L1 & SGN-CD19a H2/L2) (bispecific antibody)
chain 1: not shown
chain 2: B1 chain 2 with E179S, E181K
chain 3: not shown
chain 4: B1 chain 4 with R130S, R175D
Kd [5]: 54.9 nM | Difference in H2L2 log(KD) from wild type [6]: 0.09 log(KD) | Difference in H1L1 log(KD) from wild type [7]: 0.11 log(KD) | Kd [8]: 0.29 nM

B4: Design 2901 bispecific antibody, System C (CR8071 H1/L1 & SGN-CD19a H2/L2) (bispecific antibody)
chain 1: QVQLVQSGAEVKKPGASVRVSCRASGYIFTESGITWVRQAPGQGLEWMGWISGYSGDTKYAQKLQGRVTMTKDTSTTTAYMELRSLRYDDTAVYYCARDVQYSGSYLGAYYFDYWSPGTLVTVSSASTKGPSVFPLAPSSKSTSGGTAALGCLVTDYFPEPVTVSWNSGALTSGVHTFPADLQSSGLYSLDSVVTVPSSSLGTQTYICNVNHKPSNTKVDKKVEPKSCDKTHTCPPCPAPELLGGPSVFLFPPKPKDTLMISRTPEVTCVVVDVSHEDPEVKFNWYVDGVEVHNAKTKPREEQYNSTYRVVSVLTVLHQDWLNGKEYKCKVSNKALPAPIEKTISKAKGQPREPQVYVYPPSRDELTKNQVSLTCLVKGFYPSDIAVEWESNGQPENNYKTTPPVLDSDGSFALVSKLTVDKSRWQQGNVFSCSVMHEALHNHYTQKSLSLSPG
chain 2: not shown
chain 3: not shown
chain 4: B1 chain 4 with R130S, R175D
Kd [9]: 0.64 nM | Kd [5]: 41.9 nM | Difference in H2L2 log(KD) from wild type [6]: 0.21 log(KD)

B5: Design 3890 bispecific antibody, System C (CR8071 H1/L1 & SGN-CD19a H2/L2) (bispecific antibody)
chain 1: B4 chain 1 with A137R, T155K, D181V, Q183K, D191S
chain 2: not shown
chain 3: not shown
chain 4: B1 chain 4 with S120K, Q123R, R130S, G132V, R175S, T177R
Kd [9]: 0.44 nM | Kd [5]: 40.9 nM | Difference in H2L2 log(KD) from wild type [6]: 0.22 log(KD)

B6: Design 3967 bispecific antibody, System B (CAT-2200 H1/L1 & SGN-CD19a H2/L2) (bispecific antibody)
chain 1: not shown
chain 2: B1 chain 2 with S126D, K133T
chain 3: not shown
chain 4: B1 chain 4 with S120K, Q123R, R130S, G132V, R175S, T177R
Kd [5]: 36.1 nM | Difference in H2L2 log(KD) from wild type [6]: 0.27 log(KD) | Difference in H1L1 log(KD) from wild type [7]: -0.13 log(KD) | Kd [8]: 0.38 nM

B7: Design 3113 bispecific antibody, System B (CAT-2200 H1/L1 & SGN-CD19a H2/L2) (bispecific antibody)
chain 1: not shown
chain 2: B1 chain 2 with V137D, E179S, E181T
chain 3: not shown
chain 4: B1 chain 4
Kd [1]: 216 nM | Difference in H1L1 log(KD) from wild type [2]: -0.2 | Kd [3]: 0.44 nM | Difference in H2L2 log(KD) from wild type [4]: 0.02

B8: Pertuzumab kappa light chain construct (L2) P44F, HA-tagged (other, not shown: small tags and cut ends)
light: DIQMTQSPSSLSASVGDRVTITCKASQDVSIGVAWYQQKPGKAFKLLIYSASYRYTGVPSRFSGSGSGTDFTLTISSLQPEDFATYYCQQYYIYPYTFGQGTKVEIKRTVAAPSVFIFPPSDEQLKSGTASVVCLLNNFYPREAKVQWKVDNALQSGNSQESVTEQDSKDSTYSLSSTLTLSKADYEKHKVYACEVTHQGLSSPVTKSFNRGEC
H2L2:H2L1 normalized median ratio (H2L2 part) [10]: 67% | H2L2:H2L1 normalized median scalar value ln(r1/f1) [10]: 0.72 | H1L1:H1L2 normalized median ratio (H1L2 part) [11]: 35% | H1L1:H1L2 normalized median ratio (H1L2 part) [12]: 38% | H2L2:H2L1 normalized median ratio (H2L2 part) [13]: 59% | H2L2:H2L1 normalized median scalar value ln(r1/f1) [13]: 0.37

B9: Design 3967 bispecific antibody, System A (CAT-2200 H1/L1 & Pertuzumab H2/L2) (bispecific antibody)
chain 1: not shown
chain 2: B1 chain 2 with S126D, K133T
chain 3: not shown
chain 4: B8 light with F44P, S121K, Q124R, T178R
Difference in H1L1 log(KD) from wild type [7]: -0.11 log(KD) | Kd [8]: 0.37 nM

B10: Design 3113 bispecific antibody, System A (CAT-2200 H1/L1 & Pertuzumab H2/L2) (bispecific antibody)
chain 1: not shown
chain 2: B1 chain 2 with V137D, E179S, E181T
chain 3: not shown
chain 4: B8 light with F44P, S131R, V133G, S176R
Difference in H1L1 log(KD) from wild type [2]: -0.14 | Kd [3]: 0.39 nM

B11: Design 2979 bispecific antibody, System A (CAT-2200 H1/L1 & Pertuzumab H2/L2) (bispecific antibody)
chain 1: not shown
chain 2: B1 chain 2
chain 3: not shown
chain 4: B8 light with F44P, S131R, V133G, S176R
Difference in H1L1 log(KD) from wild type [2]: -0.03 | Kd [3]: 0.31 nM

B12: Design 2994 bispecific antibody, System A (CAT-2200 H1/L1 & Pertuzumab H2/L2) (bispecific antibody)
chain 1: not shown
chain 2: B1 chain 2 with E128Q, T135K, E179S, E181Y
chain 3: not shown
chain 4: B8 light with F44P, Q124E, V133D
Difference in H1L1 log(KD) from wild type [7]: -0.08 log(KD) | Kd [8]: 0.45 nM

B13: Design 3931 bispecific antibody, System A (CAT-2200 H1/L1 & Pertuzumab H2/L2) (bispecific antibody)
chain 1: not shown
chain 2: B1 chain 2 with E179S, E181K
chain 3: not shown
chain 4: B8 light with F44P, V133G, S176D
Difference in H1L1 log(KD) from wild type [7]: -0.07 log(KD) | Kd [8]: 0.44 nM

B14: Pertuzumab kappa light chain construct (L2) Q38D, HA-tagged (other, not shown: small tags and cut ends)
light: B8 light with Q38D, F44P
H1L1:H1L2 normalized median ratio (H1L2 part) [14]: 31% | H2L2:H2L1 normalized median ratio (H2L2 part) [15]: 56% | H2L2:H2L1 normalized median scalar value ln(r1/f1) [15]: 0.23
